B1: FBXO3 (parent)
chain: GGFPIIRDQIFRYVHDPECVATTG

Variants of: B1
Assay: protein stability index of a GFP-peptide fusion (GPS, HEK-293T) (PSI 1-6); higher = more stable
Details: c terminus: a fixed tail appended
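Also: lentivirally expressed fusions sorted by FACS into six bins by GFP to DsRed ratio, PSI derived from sequencing read proportions per bin multiplied by bin number.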

Point of comparison: GGFPIIRDQNFRYVHDPECVATTG, protein stability index 3.3. Against it:
- GGFPIIRDQIFRSVHDPECVATTG — higher, 3.62
- GGFPIIRDQIFRWVHDPECVATTG — lower, 2.18
- GGFPIIRDQIFREVHDPECVATTG — higher, 3.96
- GGFPIIRDQIFRRVHDPECVATTG — lower, 3.22
- GGFPIIRDQIFRTVHDPECVATTG — higher, 3.34
- GGFPIIRDQIFRLVHDPECVATTG — lower, 2.51
- GGFPIIRDQIFRPVHDPECVATTG — higher, 3.84
- GGFPIIRDQIFRNVHDPECVATTG — higher, 3.58
- GGFPIIRDQIFRDVHDPECVATTG — higher, 3.85
- GGFPIIRDQIFRVVHDPECVATTG — lower, 2.8
- GGFPIIRDQIFRQVHDPECVATTG — higher, 3.65
- GGFPIIRDQIFRFVHDPECVATTG — lower, 1.75
- GGFPIIRDQIFRAVHDPECVATTG — higher, 3.44
- GGFPIIRDQIFRKVHDPECVATTG — lower, 2.79
- GGFPIIRDQIFRHVHDPECVATTG — lower, 2.28
- GGFPIIRDQIFRMVHDPECVATTG — lower, 2.88
- GGFPIIRDQIFRIVHDPECVATTG — lower, 2.39
- GGFPIIRDQIFRGVHDPECVATTG — lower, 3.18
- GGFPIIRDQIFRCVHDPECVATTG — lower, 2.32
- GGFPIIRDQIFRYVHDCECVATTG — lower, 1.83
- GGFPIIRDQIFRYVHDMECVATTG — lower, 2.1
- GGFPIIRDQIFRYVHDKECVATTG — lower, 2.47
- GGFPIIRDQIFRYVHDDECVATTG — lower, 2.91
- GGFPIIRDQIFRYVHDLECVATTG — lower, 1.81
- GGFPIIRDQIFRYVHDEECVATTG — lower, 2.34
- GGFPIIRDQIFRYVHDHECVATTG — lower, 1.83
- GGFPIIRDQIFRYVHDFECVATTG — lower, 2.01
- GGFPIIRDQIFRYVHDAECVATTG — lower, 1.84
- GGFPIIRDQIFRYVHDNECVATTG — lower, 2.61
- GGFPIIRDQIFRYVHDGECVATTG — lower, 2.11
- GGFPIIRDQIFRYVHDIECVATTG — lower, 1.43
- GGFPIIRDQIVRYVHDPECVATTG — lower, 3.18
- GGFPIIRDQINRYVHDPECVATTG — higher, 3.67
- GGFPIIRDQIYRYVHDPECVATTG — lower, 2.76
- GGFPIIRDQIERYVHDPECVATTG — higher, 3.58
- GGFPIIRDQIARYVHDPECVATTG — higher, 3.59
- GGFPIIRDQICRYVHDPECVATTG — lower, 2.92
- GGFPIIRDQIDRYVHDPECVATTG — higher, 3.94
- GGFPIIRDQITRYVHDPECVATTG — higher, 3.35
- GGFPIIRDQIMRYVHDPECVATTG — lower, 2.78
- GGFPIIRDQIQRYVHDPECVATTG — lower, 3.1
- GGFPIIRDQIKRYVHDPECVATTG — lower, 2.85
- GGFPIIRDQIRRYVHDPECVATTG — lower, 2.89
- GGFPIIRDQIIRYVHDPECVATTG — lower, 2.45
- GGFPIIRDQIHRYVHDPECVATTG — higher, 4.01
- GGFPIIRDQIPRYVHDPECVATTG — higher, 3.38
- GGFPIIRDQIWRYVHDPECVATTG — lower, 1.9
- GGFPIIRDQISRYVHDPECVATTG — higher, 3.45
- GGFPIIRDQIGRYVHDPECVATTG — higher, 3.48
- GGFPIIRDQILRYVHDPECVATTG — lower, 3.02
- GGFPIIRSQIFRYVHDPECVATTG — lower, 1.61
- GGFPIIREQIFRYVHDPECVATTG — lower, 1.52
- GGFPIIRKQIFRYVHDPECVATTG — lower, 2.39
- GGFPIIRRQIFRYVHDPECVATTG — higher, 3.49
- GGFPIIRIQIFRYVHDPECVATTG — lower, 3.17
- GGFPIIRTQIFRYVHDPECVATTG — lower, 1.24
- GGFPIIRQQIFRYVHDPECVATTG — lower, 1.7
- GGFPIIRNQIFRYVHDPECVATTG — lower, 1.54
- GGFPIIRVQIFRYVHDPECVATTG — lower, 2.54
- GGFPIIRAQIFRYVHDPECVATTG — lower, 2.14
- GGFPIIRYQIFRYVHDPECVATTG — higher, 3.32
- GGFPIIRPQIFRYVHDPECVATTG — lower, 1.27
- GGFPIIRDQIFDYVHDPECVATTG — lower, 3.21
- GGFPIIRDQIFNYVHDPECVATTG — lower, 3.01
- GGFPIIRDQIFTYVHDPECVATTG — lower, 2.21
- GGFPIIRDQIFEYVHDPECVATTG — higher, 3.39
- GGFPIIRDQIFGYVHDPECVATTG — lower, 3.12
- GGFPIIRDQIFIYVHDPECVATTG — lower, 2.63
- GGFPIIRDQIFHYVHDPECVATTG — lower, 2.69
- GGFPIIRDQIFMYVHDPECVATTG — lower, 1.35
- GGFPIIRDQIFAYVHDPECVATTG — lower, 2.3
- GGFPIIRDQIFYYVHDPECVATTG — lower, 1.64
- GGFPIIRDQIFPYVHDPECVATTG — lower, 2.82
- GGFPIIRDQIFKYVHDPECVATTG — lower, 2.67
- GGFPIIRDQIFCYVHDPECVATTG — lower, 1.75
- GGFPIIRDQIFWYVHDPECVATTG — lower, 1.58
- GGFPIIRDQIFVYVHDPECVATTG — lower, 1.22
- GGFPIIRDQIFSYVHDPECVATTG — lower, 2.89
- GGFPIIRDQIFLYVHDPECVATTG — lower, 1.64
- GGFPIIRDQIFQYVHDPECVATTG — lower, 2.79
- GGFPIIRDQIFFYVHDPECVATTG — lower, 1.92
- GGFPIIRDQAFRYVHDPECVATTG — lower, 2.38
- GGFPIIRDQTFRYVHDPECVATTG — lower, 2.54
- GGFPIIRDQGFRYVHDPECVATTG — lower, 2.04
- GGFPIIRDQHFRYVHDPECVATTG — lower, 3.27
- GGFPIIRDQWFRYVHDPECVATTG — lower, 1.74
- GGFPIIRDQLFRYVHDPECVATTG — lower, 2.17
- GGFPIIRDQVFRYVHDPECVATTG — lower, 2.36
- GGFPIIRDQRFRYVHDPECVATTG — lower, 2.17
- GGFPIIRDQYFRYVHDPECVATTG — lower, 2.57
- GGFPIIRDQPFRYVHDPECVATTG — lower, 2.6
- GGFPIIRDQFFRYVHDPECVATTG — lower, 2.13
- GGFPIIRDQQFRYVHDPECVATTG — lower, 2.75
- GGFPIIRDQDFRYVHDPECVATTG — higher, 3.6
- GGFPIIRDQCFRYVHDPECVATTG — lower, 2.19
- GGFPIIRDQEFRYVHDPECVATTG — higher, 3.66
- GGFPIIRDQSFRYVHDPECVATTG — lower, 3.22
- GGFPIIRDQKFRYVHDPECVATTG — lower, 3.07
- GGFPIIRDQMFRYVHDPECVATTG — lower, 2.44
- GGFPIIRDDIFRYVHDPECVATTG — lower, 2.83
- GGFPIIRDRIFRYVHDPECVATTG — lower, 2.18
- GGFPIIRDCIFRYVHDPECVATTG — lower, 1.87
- GGFPIIRDHIFRYVHDPECVATTG — lower, 1.64
- GGFPIIRDGIFRYVHDPECVATTG — lower, 1.75
- GGFPIIRDKIFRYVHDPECVATTG — lower, 1.75
- GGFPIIRDWIFRYVHDPECVATTG — lower, 2.29
- GGFPIIRDVIFRYVHDPECVATTG — lower, 2.95
- GGFPIIRDSIFRYVHDPECVATTG — lower, 1.8
- GGFPIIRDLIFRYVHDPECVATTG — lower, 2.08
- GGFPIIRDNIFRYVHDPECVATTG — lower, 2.29
- GGFPIIRDFIFRYVHDPECVATTG — lower, 2.43
- GGFPIIRDEIFRYVHDPECVATTG — lower, 2.09
- GGFPIIRDTIFRYVHDPECVATTG — lower, 1.58
- GGFPIIRDYIFRYVHDPECVATTG — lower, 2.13
- GGFPIIRDIIFRYVHDPECVATTG — lower, 1.9
- GGFPIIRDAIFRYVHDPECVATTG — lower, 2.13
- GGFPIIRDPIFRYVHDPECVATTG — lower, 2.65
- GGFPIIRDQIFRYVHSPECVATTG — lower, 2.2
- GGFPIIRDQIFRYVHKPECVATTG — lower, 2.3
- GGFPIIRDQIFRYVHGPECVATTG — lower, 1.93
- GGFPIIRDQIFRYVHEPECVATTG — lower, 2.56
- GGFPIIRDQIFRYVHRPECVATTG — lower, 1.5
- GGFPIIRDQIFRYVHIPECVATTG — lower, 2.06
- GGFPIIRDQIFRYVHTPECVATTG — lower, 2.37
- GGFPIIRDQIFRYVHNPECVATTG — lower, 1.8
- GGFPIIRDQIFRYVHLPECVATTG — lower, 1.75
- GGFPIIRDQIFRYVHVPECVATTG — lower, 2.05
- GGFPIIRDQIFRYVHWPECVATTG — lower, 2.72
- GGFPIIRDQIFRYVHPPECVATTG — lower, 2.47
- GGFPIIRDQIFRYVHMPECVATTG — lower, 1.88
- GGFPIIRDQIFRYVHQPECVATTG — lower, 2.25
- GGFPIIRDQIFRYVHYPECVATTG — lower, 2.26
- GGFPIIRDQIFRYVHCPECVATTG — lower, 1.94
- GGFPIIRDQIFRYVHAPECVATTG — lower, 1.86
- GGFPIIRDQIFRYVHFPECVATTG — lower, 1.4
- GGFPIIRDQIFRYVHHPECVATTG — lower, 1.46
- GGFPIIPDQIFRYVHDPECVATTG — lower, 2.47
- GGFPIISDQIFRYVHDPECVATTG — lower, 2.45
- GGFPIILDQIFRYVHDPECVATTG — lower, 1.32
- GGFPIIMDQIFRYVHDPECVATTG — lower, 1.53
- GGFPIIVDQIFRYVHDPECVATTG — lower, 1.73
- GGFPIIYDQIFRYVHDPECVATTG — lower, 1.87
- GGFPIIWDQIFRYVHDPECVATTG — lower, 2.21
- GGFPIITDQIFRYVHDPECVATTG — lower, 2.72
- GGFPIIQDQIFRYVHDPECVATTG — lower, 3.09
- GGFPIINDQIFRYVHDPECVATTG — lower, 2.83
- GGFPIIKDQIFRYVHDPECVATTG — lower, 2.4
- GGFPIIIDQIFRYVHDPECVATTG — lower, 1.69
- GGFPIIHDQIFRYVHDPECVATTG — lower, 2.56
- GGFPIIRDQIFRYGHDPECVATTG — lower, 2.78
- GGFPIIRDQIFRYHHDPECVATTG — lower, 2.28
- GGFPIIRDQIFRYNHDPECVATTG — lower, 2.92
- GGFPIIRDQIFRYRHDPECVATTG — lower, 2.94
- GGFPIIRDQIFRYTHDPECVATTG — lower, 2.5
- GGFPIIRDQIFRYCHDPECVATTG — lower, 1.93
- GGFPIIRDQIFRYQHDPECVATTG — lower, 3.11
- GGFPIIRDQIFRYIHDPECVATTG — lower, 2.57
- GGFPIIRDQIFRYDHDPECVATTG — higher, 3.78
- GGFPIIRDQIFRYKHDPECVATTG — lower, 2.83
- GGFPIIRDQIFRYEHDPECVATTG — higher, 3.51
- GGFPIIRDQIFRYLHDPECVATTG — lower, 2.28
- GGFPIIRDQIFRYMHDPECVATTG — lower, 2.42
- GGFPIIRDQIFRYYHDPECVATTG — lower, 2.9
- GGFPIIRDQIFRYFHDPECVATTG — lower, 1.92
- GGFPIIRDQIFRYAHDPECVATTG — lower, 2.12
- GGFPIIRDQIFRYPHDPECVATTG — higher, 3.32
- GGFPIIRDQIFRYSHDPECVATTG — lower, 2.74
- GGFPIIRDQIFRYWHDPECVATTG — lower, 1.94
- GGFPIIRDQIFRYVKDPECVATTG — lower, 2.05
- GGFPIIRDQIFRYVMDPECVATTG — lower, 1.49
- GGFPIIRDQIFRYVGDPECVATTG — lower, 1.78
- GGFPIIRDQIFRYVADPECVATTG — lower, 1.95
- GGFPIIRDQIFRYVDDPECVATTG — lower, 2.41
- GGFPIIRDQIFRYVQDPECVATTG — lower, 2.02
- GGFPIIRDQIFRYVSDPECVATTG — lower, 1.5
- GGFPIIRDQIFRYVIDPECVATTG — lower, 1.62
- GGFPIIRDQIFRYVPDPECVATTG — lower, 2.27
- GGFPIIRDQIFRYVYDPECVATTG — lower, 1.74
- GGFPIIRDQIFRYVRDPECVATTG — lower, 1.68
- GGFPIIRDQIFRYVTDPECVATTG — lower, 2.28
- GGFPIIRDQIFRYVEDPECVATTG — lower, 2.85
- GGFPIIRDQIFRYVWDPECVATTG — lower, 1.85
- GGFPIIRDQIFRYVVDPECVATTG — lower, 2.58
- GGFPIIRDQIFRYVCDPECVATTG — lower, 1.97
- GGFPIIRDQIFRYVLDPECVATTG — lower, 1.94
- GGFPIIRDQIFRYVNDPECVATTG — lower, 1.84
- GGFPIIRDQIFRYVFDPECVATTG — lower, 1.85
